# Patent US20210163900
# Test system: T1, MTA1c (MTA1/MTA9/p1/p2 complex) (Tetrahymena thermophila)
# T1 sequence 1: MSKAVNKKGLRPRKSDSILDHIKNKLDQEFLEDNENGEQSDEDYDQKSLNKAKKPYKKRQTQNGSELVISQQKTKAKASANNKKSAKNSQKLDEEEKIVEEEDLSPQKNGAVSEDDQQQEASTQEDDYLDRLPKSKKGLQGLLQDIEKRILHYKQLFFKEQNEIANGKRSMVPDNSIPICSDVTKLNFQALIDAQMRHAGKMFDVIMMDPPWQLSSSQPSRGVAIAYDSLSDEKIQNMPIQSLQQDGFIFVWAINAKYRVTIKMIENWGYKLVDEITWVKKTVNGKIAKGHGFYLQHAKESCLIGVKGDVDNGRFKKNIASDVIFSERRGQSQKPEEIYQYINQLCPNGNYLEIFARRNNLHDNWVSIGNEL
# T1 sequence 2: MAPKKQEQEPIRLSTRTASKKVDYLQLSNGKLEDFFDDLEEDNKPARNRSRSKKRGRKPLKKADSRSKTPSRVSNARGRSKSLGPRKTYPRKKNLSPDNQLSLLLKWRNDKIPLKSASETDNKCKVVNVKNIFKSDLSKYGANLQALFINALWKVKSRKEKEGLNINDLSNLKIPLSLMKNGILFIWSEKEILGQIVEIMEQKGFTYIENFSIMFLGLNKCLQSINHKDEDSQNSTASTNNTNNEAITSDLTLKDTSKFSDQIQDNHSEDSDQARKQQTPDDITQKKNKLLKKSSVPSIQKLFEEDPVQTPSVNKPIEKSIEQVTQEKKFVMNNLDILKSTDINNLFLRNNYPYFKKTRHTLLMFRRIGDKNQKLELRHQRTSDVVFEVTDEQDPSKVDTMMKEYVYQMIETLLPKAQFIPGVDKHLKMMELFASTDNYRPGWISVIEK
# T1 sequence 3: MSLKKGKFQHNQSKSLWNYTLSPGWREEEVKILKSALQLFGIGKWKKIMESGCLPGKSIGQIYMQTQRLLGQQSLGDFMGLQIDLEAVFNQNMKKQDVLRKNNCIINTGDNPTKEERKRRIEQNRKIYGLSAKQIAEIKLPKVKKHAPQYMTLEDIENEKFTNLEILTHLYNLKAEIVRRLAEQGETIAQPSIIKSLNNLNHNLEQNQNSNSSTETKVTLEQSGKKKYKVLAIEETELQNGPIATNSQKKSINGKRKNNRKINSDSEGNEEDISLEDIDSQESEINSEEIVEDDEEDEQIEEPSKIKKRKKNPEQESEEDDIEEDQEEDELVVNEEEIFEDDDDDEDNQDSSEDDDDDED
# T1 sequence 4: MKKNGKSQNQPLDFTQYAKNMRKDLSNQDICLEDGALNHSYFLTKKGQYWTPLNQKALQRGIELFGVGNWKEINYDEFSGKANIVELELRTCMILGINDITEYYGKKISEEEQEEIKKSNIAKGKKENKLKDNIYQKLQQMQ
# Settings: [3H]SAM assay, reference substrate
substance,measurement,value
27 bp dsDNA with two ApT motifs,activity (relative activity),1
